Publication PMC8882007, “Syndapin-2 mediated transcytosis of amyloid-β across the blood–brain barrier” (Brain Communications, 2022)

T1: EEA-1 (mouse (endogenous in bEnd3), UniProt Q8BL66 1-1411)
T1 construct: EEA-1 (early endosome marker), endogenous in mouse brain endothelial cells (bEnd3); also called early endosomes (EEA-1); source: endogenous, bEnd3 mouse brain endothelial cells (fixed, permeabilized)
T1 sequence (looked up): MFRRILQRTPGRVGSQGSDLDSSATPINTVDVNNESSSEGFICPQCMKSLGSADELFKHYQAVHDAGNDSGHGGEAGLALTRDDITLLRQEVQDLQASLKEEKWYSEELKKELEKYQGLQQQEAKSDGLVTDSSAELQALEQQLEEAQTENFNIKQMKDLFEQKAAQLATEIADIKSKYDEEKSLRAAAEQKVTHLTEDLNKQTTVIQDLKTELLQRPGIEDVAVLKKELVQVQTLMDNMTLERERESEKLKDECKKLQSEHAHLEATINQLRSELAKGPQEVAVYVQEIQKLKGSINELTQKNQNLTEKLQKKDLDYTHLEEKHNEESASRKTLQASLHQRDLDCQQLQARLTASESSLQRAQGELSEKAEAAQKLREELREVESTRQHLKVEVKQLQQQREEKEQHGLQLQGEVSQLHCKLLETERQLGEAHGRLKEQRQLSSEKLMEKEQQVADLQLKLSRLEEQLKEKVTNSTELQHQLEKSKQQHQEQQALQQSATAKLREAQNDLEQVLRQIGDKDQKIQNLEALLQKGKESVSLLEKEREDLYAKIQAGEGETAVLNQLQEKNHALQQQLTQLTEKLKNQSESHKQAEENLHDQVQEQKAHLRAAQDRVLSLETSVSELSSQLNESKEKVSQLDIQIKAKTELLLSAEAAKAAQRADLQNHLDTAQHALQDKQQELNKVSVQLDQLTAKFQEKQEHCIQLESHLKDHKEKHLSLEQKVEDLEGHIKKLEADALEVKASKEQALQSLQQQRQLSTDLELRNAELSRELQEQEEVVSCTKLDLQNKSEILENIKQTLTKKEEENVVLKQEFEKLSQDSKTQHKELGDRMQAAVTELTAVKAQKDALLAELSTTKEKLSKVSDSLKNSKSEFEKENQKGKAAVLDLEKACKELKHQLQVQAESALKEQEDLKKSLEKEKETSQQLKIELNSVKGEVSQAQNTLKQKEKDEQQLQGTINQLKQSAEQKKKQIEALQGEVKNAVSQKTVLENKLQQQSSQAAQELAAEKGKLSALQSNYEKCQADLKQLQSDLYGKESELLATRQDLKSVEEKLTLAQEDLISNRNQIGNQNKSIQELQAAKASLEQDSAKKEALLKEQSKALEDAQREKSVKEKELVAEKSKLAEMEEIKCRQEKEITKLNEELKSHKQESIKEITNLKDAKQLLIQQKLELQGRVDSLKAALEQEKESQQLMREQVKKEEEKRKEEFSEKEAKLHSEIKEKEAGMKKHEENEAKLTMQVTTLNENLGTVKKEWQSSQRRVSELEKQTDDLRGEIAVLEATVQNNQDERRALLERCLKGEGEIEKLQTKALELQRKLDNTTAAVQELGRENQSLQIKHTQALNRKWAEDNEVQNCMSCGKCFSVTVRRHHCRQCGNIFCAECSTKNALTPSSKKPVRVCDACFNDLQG

T2: dynamin-2 (mouse (endogenous in bEnd3), UniProt P39054 1-870)
T2 construct: dynamin-2, endogenous in mouse brain endothelial cells (bEnd3); source: endogenous, bEnd3 mouse brain endothelial cells (fixed, permeabilized)
T2 sequence (looked up): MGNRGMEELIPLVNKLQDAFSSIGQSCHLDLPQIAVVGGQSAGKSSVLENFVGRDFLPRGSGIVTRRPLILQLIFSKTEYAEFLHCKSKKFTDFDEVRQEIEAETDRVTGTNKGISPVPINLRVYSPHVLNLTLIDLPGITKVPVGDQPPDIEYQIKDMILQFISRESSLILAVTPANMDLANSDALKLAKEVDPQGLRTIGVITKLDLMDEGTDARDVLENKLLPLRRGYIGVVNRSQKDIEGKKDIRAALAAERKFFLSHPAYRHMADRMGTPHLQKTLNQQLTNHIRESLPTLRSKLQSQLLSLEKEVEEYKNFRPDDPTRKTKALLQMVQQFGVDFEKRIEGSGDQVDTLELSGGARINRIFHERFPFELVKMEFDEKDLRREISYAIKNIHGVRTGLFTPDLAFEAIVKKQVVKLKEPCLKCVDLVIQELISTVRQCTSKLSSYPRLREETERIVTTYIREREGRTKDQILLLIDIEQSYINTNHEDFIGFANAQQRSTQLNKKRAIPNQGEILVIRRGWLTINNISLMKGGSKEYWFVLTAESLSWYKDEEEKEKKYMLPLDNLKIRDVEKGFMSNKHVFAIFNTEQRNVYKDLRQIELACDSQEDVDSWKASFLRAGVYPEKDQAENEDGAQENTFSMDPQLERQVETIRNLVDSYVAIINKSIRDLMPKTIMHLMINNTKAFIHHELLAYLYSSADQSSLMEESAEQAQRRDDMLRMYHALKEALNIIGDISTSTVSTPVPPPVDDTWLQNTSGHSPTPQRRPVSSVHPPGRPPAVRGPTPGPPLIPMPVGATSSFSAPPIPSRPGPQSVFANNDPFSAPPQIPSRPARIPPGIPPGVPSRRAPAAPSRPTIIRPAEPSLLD

B1: syndapin-2 (natural protein, mouse (endogenous in bEnd3), UniProt Q9WVE8 1-486, looked up)
chain: MSVTYDDSVGVEVSSDSFWEVGNYKRTVKRIDDGHRLCGDLMNCLHERARIEKAYAQQLTEWARRWRQLVEKGPQYGTVEKAWIAVMSEAERVSELHLEVKASLMNEDFEKIKNWQKEAFHKQMMGGFKETKEAEDGFRKAQKPWAKKLKEVEAAKKAHHTACKEEKLAISREANSKADPSLNPEQLKKLQDKIEKCKQDVLKTKDKYEKSLKELDQTTPQYMENMEQVFEQCQQFEEKRLRFFREVLLEVQKHLDLSNVASYKTIYRELEQSIKAADAVEDLRWFRANHGPGMAMNWPQFEEWSADLNRTLSRREKKKAVDGVTLTGINQTGDQSGQNKPGSNLSVPSNPAQSTQLQSSYNPFEDEDDTGSSISEKEDIKAKNVSSYEKTQTYPTDWSDDESNNPFSSTDANGDSNPFDEDTTSGTEVRVRALYDYEGQEHDELSFKAGDELTKIEDEDEQGWCKGRLDSGQVGLYPANYVEAIQ
notes: syndapin-2 (PACSIN-2), F-BAR protein, endogenous in mouse brain endothelial cells (bEnd3); also called PACSIN-2; Syn-2; source: endogenous, bEnd3 mouse brain endothelial cells (fixed, permeabilized)
B2: apolipoprotein E (ligand, mouse (endogenous in bEnd3), UniProt P08226 19-311, looked up)
chain: EGEPEVTDQLEWQSNQPWEQALNRFWDYLRWVQTLSDQVQEELQSSQVTQELTALMEDTMTEVKAYKKELEEQLGPVAEETRARLGKEVQAAQARLGADMEDLRNRLGQYRNEVHTMLGQSTEEIRARLSTHLRKMRKRLMRDAEDLQKRLAVYKAGAREGAERGVSAIRERLGPLVEQGRQRTANLGAGAAQPLRDRAQAFGDRIRGRLEEVGNQARDRLEEVREHMEEVRSKMEEQTQQIRLQAEIFQARLKGWFEPIVEDMHRQWANLMEKIQASVATNPIITPVAQENQ
notes: apolipoprotein E (ApoE), detected in mouse brain endothelial cells (bEnd3); also called ApoE; source: endogenous, bEnd3 mouse brain endothelial cells (fixed, permeabilized)

Assays:
Test in all cases: proximity ligation; Duolink PLA between two endogenous proteins in polarized bEnd3 monolayers, fixed in 4% PFA and permeabilized with 0.1% Triton X-100; two primary antibodies overnight at 4°C; PLA signal normalized by the number of nuclei; also in shRNA control (scramble) and syndapin-2 knockdown cells, and after FAM-Aβ (1–40) or Aβ monomers, oligomers or fibrils for 15 min
Details in all cases: partners not purified
heavy chain of clathrin = target: T3, heavy chain of clathrin (mouse (endogenous in bEnd3), UniProt Q68FD5 1-1675)
T3 construct: clathrin heavy chain, endogenous in mouse brain endothelial cells (bEnd3); source: endogenous, bEnd3 mouse brain endothelial cells (fixed, permeabilized)

β-actin = β-actin (mouse (endogenous in bEnd3), UniProt P60710 1-375)
apolipoprotein E = target: B2
EEA-1 = target: T1, EEA-1
[1] = target: T4, low-density lipoprotein receptor-related protein 1 (mouse (endogenous in bEnd3), UniProt Q91ZX7 20-4545)
T4 construct: low-density lipoprotein receptor-related protein 1 (LRP1), endogenous in mouse brain endothelial cells (bEnd3); also called LRP1; source: endogenous, bEnd3 mouse brain endothelial cells (fixed, permeabilized)

dynamin-2 = target: T2, dynamin-2

T4 sequence (Q91ZX7 20-4545): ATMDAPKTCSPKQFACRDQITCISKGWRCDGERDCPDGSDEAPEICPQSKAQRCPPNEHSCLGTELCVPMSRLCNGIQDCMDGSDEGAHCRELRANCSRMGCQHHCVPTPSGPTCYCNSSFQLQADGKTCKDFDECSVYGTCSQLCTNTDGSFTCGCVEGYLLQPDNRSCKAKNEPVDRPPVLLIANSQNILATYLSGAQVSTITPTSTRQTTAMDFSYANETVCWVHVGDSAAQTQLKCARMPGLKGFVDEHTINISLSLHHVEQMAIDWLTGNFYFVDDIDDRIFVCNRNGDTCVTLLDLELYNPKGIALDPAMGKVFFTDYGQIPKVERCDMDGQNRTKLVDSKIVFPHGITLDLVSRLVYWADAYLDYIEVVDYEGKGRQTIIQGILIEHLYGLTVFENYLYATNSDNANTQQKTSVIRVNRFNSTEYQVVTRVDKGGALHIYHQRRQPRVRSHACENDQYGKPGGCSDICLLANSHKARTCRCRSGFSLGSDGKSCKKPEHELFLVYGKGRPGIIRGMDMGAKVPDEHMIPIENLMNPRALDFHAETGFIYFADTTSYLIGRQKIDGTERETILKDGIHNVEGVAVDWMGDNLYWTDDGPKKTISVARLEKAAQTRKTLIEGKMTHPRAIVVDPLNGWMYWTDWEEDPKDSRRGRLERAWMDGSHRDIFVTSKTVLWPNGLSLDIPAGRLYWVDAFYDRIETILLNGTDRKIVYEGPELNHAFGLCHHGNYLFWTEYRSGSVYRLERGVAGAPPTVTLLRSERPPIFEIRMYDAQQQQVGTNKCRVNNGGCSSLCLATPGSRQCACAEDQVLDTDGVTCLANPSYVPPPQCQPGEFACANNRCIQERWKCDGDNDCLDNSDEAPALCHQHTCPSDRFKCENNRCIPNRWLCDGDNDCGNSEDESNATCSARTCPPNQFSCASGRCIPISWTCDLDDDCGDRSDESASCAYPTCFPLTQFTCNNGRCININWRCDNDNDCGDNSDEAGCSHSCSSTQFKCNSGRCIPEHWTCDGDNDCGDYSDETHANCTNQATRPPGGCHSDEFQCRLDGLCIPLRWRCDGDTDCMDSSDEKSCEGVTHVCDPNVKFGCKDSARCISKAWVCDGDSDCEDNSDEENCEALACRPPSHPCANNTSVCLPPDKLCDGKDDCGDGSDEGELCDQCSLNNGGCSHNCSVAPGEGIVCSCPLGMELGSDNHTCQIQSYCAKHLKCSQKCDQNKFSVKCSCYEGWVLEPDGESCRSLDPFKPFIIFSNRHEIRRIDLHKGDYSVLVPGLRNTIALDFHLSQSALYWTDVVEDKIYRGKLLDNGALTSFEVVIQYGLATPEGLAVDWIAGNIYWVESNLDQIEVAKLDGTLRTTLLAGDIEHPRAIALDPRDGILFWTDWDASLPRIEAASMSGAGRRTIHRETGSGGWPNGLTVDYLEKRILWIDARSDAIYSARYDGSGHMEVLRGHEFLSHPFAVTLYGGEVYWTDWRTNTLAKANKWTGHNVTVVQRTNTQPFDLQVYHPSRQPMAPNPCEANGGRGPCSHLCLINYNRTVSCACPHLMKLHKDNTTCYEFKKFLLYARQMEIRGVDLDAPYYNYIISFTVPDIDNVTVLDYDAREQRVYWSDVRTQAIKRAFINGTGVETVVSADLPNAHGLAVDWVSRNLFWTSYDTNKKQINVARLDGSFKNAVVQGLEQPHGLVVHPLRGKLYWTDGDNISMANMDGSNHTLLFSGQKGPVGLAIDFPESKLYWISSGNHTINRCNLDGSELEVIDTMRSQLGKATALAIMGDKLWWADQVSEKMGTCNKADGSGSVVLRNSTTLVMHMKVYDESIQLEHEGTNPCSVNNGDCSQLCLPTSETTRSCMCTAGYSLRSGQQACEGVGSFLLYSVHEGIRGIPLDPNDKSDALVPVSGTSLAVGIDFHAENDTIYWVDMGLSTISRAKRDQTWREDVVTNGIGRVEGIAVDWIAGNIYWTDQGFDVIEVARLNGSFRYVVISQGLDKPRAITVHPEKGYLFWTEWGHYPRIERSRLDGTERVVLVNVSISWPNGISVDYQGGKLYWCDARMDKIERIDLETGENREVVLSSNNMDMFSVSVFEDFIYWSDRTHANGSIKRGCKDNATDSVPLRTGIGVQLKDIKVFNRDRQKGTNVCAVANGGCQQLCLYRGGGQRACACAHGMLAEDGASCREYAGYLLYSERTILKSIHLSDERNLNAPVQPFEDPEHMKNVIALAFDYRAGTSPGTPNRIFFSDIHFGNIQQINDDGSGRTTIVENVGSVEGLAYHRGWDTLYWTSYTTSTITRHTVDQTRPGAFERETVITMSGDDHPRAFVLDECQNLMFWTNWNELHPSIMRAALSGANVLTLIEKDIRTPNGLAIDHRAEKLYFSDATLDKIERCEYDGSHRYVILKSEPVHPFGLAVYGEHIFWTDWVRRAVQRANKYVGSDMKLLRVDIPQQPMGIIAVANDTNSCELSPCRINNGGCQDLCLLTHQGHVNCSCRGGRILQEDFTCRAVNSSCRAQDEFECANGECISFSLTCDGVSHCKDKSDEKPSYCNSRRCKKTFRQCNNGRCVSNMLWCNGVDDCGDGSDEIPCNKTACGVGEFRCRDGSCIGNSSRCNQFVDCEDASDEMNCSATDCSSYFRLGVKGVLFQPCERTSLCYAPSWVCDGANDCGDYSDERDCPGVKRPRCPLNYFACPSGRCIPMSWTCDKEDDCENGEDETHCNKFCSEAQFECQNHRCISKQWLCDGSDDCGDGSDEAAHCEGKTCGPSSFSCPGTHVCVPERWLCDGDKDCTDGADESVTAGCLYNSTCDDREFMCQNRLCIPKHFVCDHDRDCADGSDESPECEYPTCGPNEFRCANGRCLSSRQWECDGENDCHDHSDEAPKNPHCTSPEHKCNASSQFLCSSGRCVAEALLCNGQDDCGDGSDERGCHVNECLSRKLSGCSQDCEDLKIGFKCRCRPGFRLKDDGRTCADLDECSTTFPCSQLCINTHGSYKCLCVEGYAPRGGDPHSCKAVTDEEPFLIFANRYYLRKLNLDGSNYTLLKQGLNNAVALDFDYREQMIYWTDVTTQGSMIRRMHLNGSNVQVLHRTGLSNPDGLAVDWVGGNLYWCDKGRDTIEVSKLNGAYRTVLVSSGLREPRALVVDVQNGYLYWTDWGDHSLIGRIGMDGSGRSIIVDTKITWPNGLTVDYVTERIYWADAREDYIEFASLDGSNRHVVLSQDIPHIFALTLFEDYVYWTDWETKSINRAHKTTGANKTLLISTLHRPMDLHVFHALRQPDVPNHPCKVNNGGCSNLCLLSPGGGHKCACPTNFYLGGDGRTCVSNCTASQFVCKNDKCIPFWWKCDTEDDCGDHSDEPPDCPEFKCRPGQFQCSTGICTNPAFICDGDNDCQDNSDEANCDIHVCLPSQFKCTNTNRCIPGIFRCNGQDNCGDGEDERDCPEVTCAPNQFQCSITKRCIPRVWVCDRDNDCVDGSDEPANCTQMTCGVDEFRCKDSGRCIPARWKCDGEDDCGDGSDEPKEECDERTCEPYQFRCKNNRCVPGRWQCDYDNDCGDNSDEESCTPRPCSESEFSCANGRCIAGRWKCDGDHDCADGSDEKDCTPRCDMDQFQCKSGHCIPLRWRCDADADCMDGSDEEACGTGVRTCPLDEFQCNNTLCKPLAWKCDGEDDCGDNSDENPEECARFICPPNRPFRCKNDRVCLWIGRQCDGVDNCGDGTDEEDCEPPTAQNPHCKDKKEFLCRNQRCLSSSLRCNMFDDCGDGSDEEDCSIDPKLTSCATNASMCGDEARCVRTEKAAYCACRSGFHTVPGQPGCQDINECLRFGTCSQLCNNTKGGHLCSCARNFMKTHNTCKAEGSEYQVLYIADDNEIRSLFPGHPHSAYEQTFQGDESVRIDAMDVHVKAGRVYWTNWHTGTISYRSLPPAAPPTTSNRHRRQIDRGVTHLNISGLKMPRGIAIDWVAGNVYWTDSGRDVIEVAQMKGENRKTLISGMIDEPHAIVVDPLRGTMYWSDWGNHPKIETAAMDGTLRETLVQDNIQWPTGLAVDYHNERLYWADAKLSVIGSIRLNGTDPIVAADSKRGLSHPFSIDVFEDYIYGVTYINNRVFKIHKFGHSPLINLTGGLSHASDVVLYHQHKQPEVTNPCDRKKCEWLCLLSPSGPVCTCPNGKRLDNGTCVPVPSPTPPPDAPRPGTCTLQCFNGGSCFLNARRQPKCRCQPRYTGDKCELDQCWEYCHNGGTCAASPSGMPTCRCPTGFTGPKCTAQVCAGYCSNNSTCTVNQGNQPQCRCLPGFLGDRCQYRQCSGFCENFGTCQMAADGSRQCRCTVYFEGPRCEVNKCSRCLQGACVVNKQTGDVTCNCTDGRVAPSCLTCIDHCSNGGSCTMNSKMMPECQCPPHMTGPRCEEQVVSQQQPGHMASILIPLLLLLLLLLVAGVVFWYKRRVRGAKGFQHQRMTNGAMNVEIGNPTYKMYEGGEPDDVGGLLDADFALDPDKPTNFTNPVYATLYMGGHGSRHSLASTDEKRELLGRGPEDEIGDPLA

| PLA dots per cell (heavy chain of clathrin) [dots per cell] | PLA dots per cell (β-actin) [dots per cell] | PLA dots per cell (apolipoprotein E) [dots per cell] | PLA dots per cell (EEA-1) [dots per cell] | PLA dots per cell [1] [dots per cell] | PLA dots per cell (dynamin-2) [dots per cell] | Binder |
| --- | --- | --- | --- | --- | --- | --- |
| ~150 | ~150 | ~250 | < 20 | ~250 | ~150 | B1 |
|  |  |  |  | ~80 |  | B2 |
